{"source": "paper PMC12000442", "about": "(Nature Communications, 2025)", "biological_target": "T1, NAA10^R4S-3xFLAG (human, UniProt P41227 1-235, R4S)", "T1 sequence": "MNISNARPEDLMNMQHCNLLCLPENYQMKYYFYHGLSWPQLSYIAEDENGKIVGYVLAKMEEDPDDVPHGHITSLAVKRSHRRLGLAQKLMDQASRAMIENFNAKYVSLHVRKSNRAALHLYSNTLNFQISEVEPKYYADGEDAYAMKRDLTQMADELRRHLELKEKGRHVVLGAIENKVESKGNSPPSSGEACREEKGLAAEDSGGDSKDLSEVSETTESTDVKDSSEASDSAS", "assay": "co-IP", "data": [{"binder": "NAA15 (natural protein) MPAVSLPPKENALFKRILRCYEHKQYRNGLKFCKQILSNPKFAEHGETLAMKGLTLNCLGKKEEAYELVRRGLRNDLKSHVCWHVYGLLQRSDKKYDEAIKCYRNALKWDKDNLQILRDLSLLQIQMRDLEGYRETRYQLLQLRPAQRASWIGYAIAYHLLEDYEMAAKILEEFRKTQQTSPDKVDYEYSELLLYQNQVLREAGLYREALEHLCTYEKQICDKLAVEETKGELLLQLCRLEDAADVYRGLQERNPENWAYYKGLEKALKPANMLERLKIYEEAWTKYPRGLVPRRLPLNFLSGEKFKECLDKFLRMNFSKGCPPVFNTLRSLYKDKEKVAIIEELVVGYETSLKSCRLFNPNDDGKEEPPTTLLWVQYYLAQHYDKIGQPSIALEYINTAIESTPTLIELFLVKAKIYKHAGNIKEAARWMDEAQALDTADRFINSKCAKYMLKANLIKEAEEMCSKFTREGTSAVENLNEMQCMWFQTECAQAYKAMNKFGEALKKCHEIERHFIEITDDQFDFHTYCMRKITLRSYVDLLKLEDVLRQHPFYFKAARIAIEIYLKLHDNPLTDENKEHEADTANMSDKELKKLRNKQRRAQKKAQIEEEKKNAEKEKQQRNQKKKKDDDDEEIGGPKEELIPEKLAKVETPLEEAIKFLTPLKNLVKNKIETHLFAFEIYFRKEKFLLMLQSVKRAFAIDSSHPWLHECMIRLFNTAVCESKDLSDTVRTVLKQEMNRLFGATNPKNFNETFLKRNSDSLPHRLSAAKMVYYLDPSSQKRAIELATTLDESLTNRNLQTCMEVLEALYDGSLGDCKEAAEIYRANCHKLFPYALAFMPPGYEEDMKITVNGDSSAEAEELANEI", "values": [{"measurement": "binding capacity relative to WT", "result": "0.5 relative to WT (WT = 1.0)"}]}]}
